Laboratory results: the supplement of paper PMC10567573

B1: LCOR (parent)
chain: YKVKERLGTLKNPPKKKMKLMSG

Variants of: B1
Test: protein stability index of a GFP-peptide fusion (GPS, HEK-293T) (PSI 1-6); higher = more stable
Details: c terminus: native
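Further: lentivirally expressed fusions sorted by FACS into six bins by GFP to DsRed ratio, PSI derived from sequencing read proportions per bin multiplied by bin number.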

In order of falling protein stability index:
1. YKVKERLGTLKNPPWKKMKLMSG [K15W]  3.79
2. YKVKERLGTLKNPPIKKMKLMSG [K15I]  3.63
3. YKVKERLGTLKNPSKKKMKLMSG [P14S]  3.59
4. YWVKERLGTLKNPPKKKMKLMSG [K2W]  3.46
5. YKVKERLGTLKNPMKKKMKLMSG [P14M]  3.42
6. YKVWERLGTLKNPPKKKMKLMSG [K4W]  3.3
7. YVVKERLGTLKNPPKKKMKLMSG [K2V]  3.04
8. YKVKERLGWLKNPPKKKMKLMSG [T9W]  3.03
9. YKVKERLGTLKNPPKKKMKLMKG [S22K]  3.02
10. YKVNERLGTLKNPPKKKMKLMSG [K4N]  2.97
11. YKVKERLGTLKNPPKKQMKLMSG [K17Q]  2.96
12. YKVKERLGTLKNPPKKKMKLMHG [S22H]  2.95
13. YKVKERLGTLKNPHKKKMKLMSG [P14H]  2.87
14. YKVKERLGTLKNPPKKKMKLMAG [S22A]  2.85
15. YKVKERCGTLKNPPKKKMKLMSG [L7C]  2.75
16. YKVKERLGQLKNPPKKKMKLMSG [T9Q]  2.64
17. YKVKERLGTLKNPPKKKGKLMSG [M18G]  2.59
18. YKVKERLGTLKNPPKKIMKLMSG [K17I]  2.58
19. YKVKERLGTLKNPPKKKMKLMEG [S22E]  2.58
20. YKVKERDGTLKNPPKKKMKLMSG [L7D]  2.56
21. YKVKEMLGTLKNPPKKKMKLMSG [R6M]  2.5
22. YKVKERAGTLKNPPKKKMKLMSG [L7A]  2.49
23. YKVKERLGTLYNPPKKKMKLMSG [K11Y]  2.48
24. YKVEERLGTLKNPPKKKMKLMSG [K4E]  2.48
25. YKVKEPLGTLKNPPKKKMKLMSG [R6P]  2.47
26. YKVKERLGTLKNPPKKKYKLMSG [M18Y]  2.43
27. YKVKERLGTLKNPPKKAMKLMSG [K17A]  2.41
28. YKVKERLGTLKNPWKKKMKLMSG [P14W]  2.41
29. YKVKERLGTLRNPPKKKMKLMSG [K11R]  2.39
30. YYVKERLGTLKNPPKKKMKLMSG [K2Y]  2.37
31. YKVKERLGVLKNPPKKKMKLMSG [T9V]  2.35
32. YKVKERLGTLKNPPHKKMKLMSG [K15H]  2.34
33. YKVYERLGTLKNPPKKKMKLMSG [K4Y]  2.3
34. YKVKERLGTLKNPPKKKQKLMSG [M18Q]  2.23
35. YKVKERLGTLKNPPKKRMKLMSG [K17R]  2.22
36. YKVKERLGYLKNPPKKKMKLMSG [T9Y]  2.22
37. YKVKEFLGTLKNPPKKKMKLMSG [R6F]  2.2
38. YKVKERLGTLKNPPKKKRKLMSG [M18R]  2.2
39. SKVKERLGTLKNPPKKKMKLMSG [Y1S]  2.2
40. WKVKERLGTLKNPPKKKMKLMSG [Y1W]  2.2
41. YKVKERLGSLKNPPKKKMKLMSG [T9S]  2.19
42. YKVKERLGTLKNPPKKKMKLMLG [S22L]  2.19
43. YKVKERLGDLKNPPKKKMKLMSG [T9D]  2.17
44. YKVKEQLGTLKNPPKKKMKLMSG [R6Q]  2.16
45. EKVKERLGTLKNPPKKKMKLMSG [Y1E]  2.15
46. YKVKEYLGTLKNPPKKKMKLMSG [R6Y]  2.14
47. YKVKERLGTLKNPPKKKMKLMCG [S22C]  2.14
48. YKVKERLGTLKNPCKKKMKLMSG [P14C]  2.14
49. YKVKERIGTLKNPPKKKMKLMSG [L7I]  2.14
50. YKVGERLGTLKNPPKKKMKLMSG [K4G]  2.1
51. YKVKERLGTLKNPPKKKNKLMSG [M18N]  2.06
52. VKVKERLGTLKNPPKKKMKLMSG [Y1V]  2.05
53. YKVKERLGTLKNPPRKKMKLMSG [K15R]  2.04
54. YKVKERLGTLKNPPKKKHKLMSG [M18H]  2.03
55. YKVKERLGTLKNPPKKKPKLMSG [M18P]  2.03
56. DKVKERLGTLKNPPKKKMKLMSG [Y1D]  2.03
57. YKVKERLGTLKNPPKKKIKLMSG [M18I]  2.02
58. YKVKERKGTLKNPPKKKMKLMSG [L7K]  1.98
59. YKVKERLGALKNPPKKKMKLMSG [T9A]  1.96
60. YKVKERLGTLKNPPKKMMKLMSG [K17M]  1.94
61. YKVSERLGTLKNPPKKKMKLMSG [K4S]  1.93
62. NKVKERLGTLKNPPKKKMKLMSG [Y1N]  1.9
63. YKVAERLGTLKNPPKKKMKLMSG [K4A]  1.88
64. YHVKERLGTLKNPPKKKMKLMSG [K2H]  1.88
65. YKVKERTGTLKNPPKKKMKLMSG [L7T]  1.85
66. YKVKERHGTLKNPPKKKMKLMSG [L7H]  1.84
67. YKVKERLGTLKNPPKKWMKLMSG [K17W]  1.83
68. YKVKERLGRLKNPPKKKMKLMSG [T9R]  1.81
69. YSVKERLGTLKNPPKKKMKLMSG [K2S]  1.8
70. YCVKERLGTLKNPPKKKMKLMSG [K2C]  1.79
71. YKVKERLGTLKNPKKKKMKLMSG [P14K]  1.77
72. YKVKERWGTLKNPPKKKMKLMSG [L7W]  1.76
73. YKVKETLGTLKNPPKKKMKLMSG [R6T]  1.72
74. YIVKERLGTLKNPPKKKMKLMSG [K2I]  1.72
75. YKVKERLGTLKNPDKKKMKLMSG [P14D]  1.71
76. YEVKERLGTLKNPPKKKMKLMSG [K2E]  1.71
77. YKVKERLGTLENPPKKKMKLMSG [K11E]  1.69
78. YKVKERLGTLKNPPKKVMKLMSG [K17V]  1.68
79. YGVKERLGTLKNPPKKKMKLMSG [K2G]  1.64
80. YKVKERLGTLKNPTKKKMKLMSG [P14T]  1.63
81. YKVKERLGTLKNPPKKKMKLMMG [S22M]  1.61
82. YKVKERLGTLKNPPLKKMKLMSG [K15L]  1.58
83. KKVKERLGTLKNPPKKKMKLMSG [Y1K]  1.54
84. YKVKERYGTLKNPPKKKMKLMSG [L7Y]  1.53
85. YKVKERLGTLKNPNKKKMKLMSG [P14N]  1.49
86. YAVKERLGTLKNPPKKKMKLMSG [K2A]  1.48
87. YKVKERLGTLKNPPKKSMKLMSG [K17S]  1.42
88. YKVKERLGTLKNPEKKKMKLMSG [P14E]  1.37
89. YKVKERMGTLKNPPKKKMKLMSG [L7M]  1.37
90. YKVKERLGTLKNPPKKKTKLMSG [M18T]  1.36
91. YKVKERLGTLKNPPKKKWKLMSG [M18W]  1.36
92. YKVKERLGTLKNPLKKKMKLMSG [P14L]  1.32
93. YQVKERLGTLKNPPKKKMKLMSG [K2Q]  1.31
94. YKVMERLGTLKNPPKKKMKLMSG [K4M]  1.26
95. YKVKERLGGLKNPPKKKMKLMSG [T9G]  1.23
96. GKVKERLGTLKNPPKKKMKLMSG [Y1G]  1.2
97. YKVKERRGTLKNPPKKKMKLMSG [L7R]  1.06
